The record followed here is article PMC8495200.

The stoichiometry N is a count of units in the complex or per binding partner.

Assay in all cases: native gel or EMSA; Blue Native PAGE, purified recombinant non-tagged proteins in 1 x PBS, 1 mM DTT, 1 mM ATP; 4-16% Bis-Tris gels, cold room, Coomassie staining
In general terms: Mobility shift assays separate free from complexed probe on a gel.

Test [1] concerns the target UBXD9^261–573, GST tag cleaved (D. discoideum).
The target in test [2] is UBXD9^331–573, GST tag cleaved (D. discoideum).
Test [3] has as its target UBXD9^384–573, GST tag cleaved (D. discoideum).

With “UBXD9^261–573, GST tag cleaved (domain or fragment)”, in test [1], the stoichiometry N was determined as 6. Consider “UBXD9^331–573, GST tag cleaved (domain or fragment)”, for which the stoichiometry N in test [2] came to 6.

For the substance “UBXD9^384–573, GST tag cleaved (domain or fragment)”, the stoichiometry N in test [3] amounted to 6.
